Measured values reported in US20230324413A1, “RENIN-BASED ANALYSIS OF HEPCIDIN” (TAMPERE UNIVERSITY FOUNDATION SR, priority 2020, published 2023).

Target: T1, human renin (Homo sapiens, UniProt P00797)
T1 construct: purchased Biovision, Inc. San Francisco, CA
T1 sequence (P00797 67-406): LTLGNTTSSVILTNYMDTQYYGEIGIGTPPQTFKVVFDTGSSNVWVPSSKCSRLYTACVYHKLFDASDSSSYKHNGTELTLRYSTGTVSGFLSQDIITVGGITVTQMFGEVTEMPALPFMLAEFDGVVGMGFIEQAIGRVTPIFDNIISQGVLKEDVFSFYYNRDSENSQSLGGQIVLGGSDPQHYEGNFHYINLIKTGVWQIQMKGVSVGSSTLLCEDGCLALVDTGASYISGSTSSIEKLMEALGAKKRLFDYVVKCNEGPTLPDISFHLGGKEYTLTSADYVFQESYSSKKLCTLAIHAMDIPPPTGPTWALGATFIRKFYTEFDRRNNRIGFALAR
Assay: Renin inhibition screening kit, kinetic fluorescence measurement of renin enzyme activity
Format: biochemical
Conditions: for Inhibition of renin activity (in words): 10 nM, 100 nM and 500 nM, FIG. 5; for Mean inhibitory effect on renin activity: 37° C, 60 min kinetic fluorescence
Excerpt: Human hepcidin-25/LEAP-1 (hep-25, with disulfide bonds between Cys7-Cys23, Cys10-Cys13, […], and Cys14-Cys22, purity assessed by HPLC≥98.0%) was purchased from Peptides International (Peptides International Inc, Louisville, KY). N-terminal part of hepcidin, DTHFPICIF (hep-9; SEQ ID NO: 6) and DTHFP (hep-5; SEQ ID NO: 7), were synthetized by Proteogenix (Schiltigheim, France). Renin inhibition screening kit was purchased from Biovision (Biovision, Inc. San Francisco, CA). ForteBio's 96 well black plates were used in the measurements.
Hep-25, hep-9, and hep-5 were used in final sample concentrations of 10 nM, 100 nM and 500 nM to measure inhibition of renin enzyme activity. The concentrations used represent normal levels of hepcidin in human circulation. Fluorescence measurement was performed using Perkin Elmer UV/VIS Envision multimode plate reader. Excitation and emission wavelengths were 328 and 552 nm, respectively. Fluorescence was recorded every 60 s for 60 min at 37° C. Rate of renin inhibition was calculated following the manufacture's instructions.

Row | Substance | Inhibition of renin activity (in words) | Mean inhibitory effect on renin activity (peptide concentration 10 nM) [%] | Mean inhibitory effect on renin activity (peptide concentration 100 nM) [%] | Mean inhibitory effect on renin activity (peptide concentration 500 nM) [%]
1 | DTHFP [hepcidin-5, N-terminal part of hepcidin, 5 amino acids, synthetized by Proteogenix] | inhibited renin activity | 50.1 | 50.0 | 58.6
2 | DTHFPICIF [hepcidin-9] | inhibited renin activity | 41.25 | 41.15 | 42.65
3 | hepcidin-25: mature bioactive 25 amino acid hepcidin peptide, SEQ ID NO: 1; purchased from Peptides International | – | 20.4 | 29.2 | 38.3
